Experimental data reported in patent publication US20250295799A1 (Zymeworks, published 2025).

What was measured:
[1] = biological target: T1, recombinant cynomolgus GPC3 (glypican-3) (cynomolgus monkey, UniProt A0A2K5VK50 24-558); assay: SPR (Biacore T200), antibody captured by anti-Fc, GPC3 injected, single-cycle kinetics, 1:1 fit; average
T1 construct: also called cynoGPC3
Description: (§1) CM5 Series S sensor chip, Biacore™ amine coupling kit (NHS, EDC and 1 M ethanolamine), and 10 mM sodium acetate buffers were purchased from Cytiva Life Sciences (Mississauga, ON, Canada). PBS running buffer with 0.05% Tween20 (PBST) was purchased from Teknova Inc. (Hollister, CA). Antigens: recombinant human and cynomolgus GPC3 was purchased from ACROBiosystems (Newark, DE) and SEC purified on a Superdex 200 10/300 GL column (Cytiva) in PBST running buffer at 0.8 mL/min.
(§2) Screening of the antibodies for binding to GPC3 antigen was conducted via anti-Fc capture of antibodies, followed by the injection of five concentrations of GPC3. The anti-Fc surface was prepared on a CM5 Series S sensor chip by standard amine coupling methods as described by the manufacturer (Cytiva Life Sciences, Mississauga, ON, Canada). […] Approximately 150-400 RUs of each antibody (5-20 μg/mL) were captured on the goat anti-human IgG surface by injecting at 10 μL/min for 60s. Using single-cycle kinetics, five concentrations of a two-fold dilution series of human or cynomolgus GPC3 starting at 40 nM, 20 nM, 10 nM, or 5 nM depending on the antibody, with a blank buffer control were injected at 20 μL/min for 180s of contact time, followed by 180 s dissociation phase, resulting in sensorgrams with a buffer blank reference. The anti-Fc surface was regenerated to prepare for the next injection cycle by one pulse of 10 mM glycine/HCl pH 1.5 for 120 s at 40 μL/min. Blank-subtracted sensorgrams were analyzed and fit to the 1:1 Langmuir binding model using Biacore™ T200 Evaluation Software v3.2.

[2] = biological target: T2, recombinant human GPC3 (glypican-3) (human, UniProt P51654 25-559); assay: SPR (Biacore T200), antibody captured by anti-Fc, GPC3 injected
T2 construct: also called huGPC3; hGPC3
Description: as §1, §2

[3] = biological target: T2, recombinant human GPC3 (glypican-3); assay: SPR (Biacore T200), antibody captured by anti-Fc, GPC3 injected, single-cycle kinetics, 1:1 fit; average
Description: as §1, §2

[4] = biological target: T1, recombinant cynomolgus GPC3 (glypican-3); assay: SPR; Kd on human GPC3 divided by Kd on cynomolgus GPC3
Description: as §1, §2

Binder | Kd [1] [nM] | Avg % binding huGPC3 (RU observed/theoretical) [2] [%] | Kd [3] [nM] | Kd Fold difference (hu/cyno) [4] [fold]
v40211, H18L6_LC_G34V mAb (antibody, human IgG1, kappa, V domains shown, no number given for this variant) VH: QVQLVQSGAEVKKPGSSVKVSCKASGYTFTDYEMHWVKQAPGHGLEWIGAIDPETGDTAYNQKFKGKATLTADTSTSTAYMELSSLRSEDTAVYYCTRYFSFAYWGQGTLVTVSS VL: EIVLTQSPATLSLSPGERATISCRSSQSLRHSNVNTYLQWYQQKPGQAPRLLIYKVSNRFSGVPARFSGSGSGTDFTLTISSLEPEDFAVYFCYQSKHVPYTFGGGTKVEIKR | 18.5 | 23.4 | 21 | 1.13
v40212, H18L6_LC_G34A mAb (antibody, human IgG1, kappa, V domains shown, no number given for this variant) VH: QVQLVQSGAEVKKPGSSVKVSCKASGYTFTDYEMHWVKQAPGHGLEWIGAIDPETGDTAYNQKFKGKATLTADTSTSTAYMELSSLRSEDTAVYYCTRYFSFAYWGQGTLVTVSS VL: EIVLTQSPATLSLSPGERATISCRSSQSLRHSNANTYLQWYQQKPGQAPRLLIYKVSNRFSGVPARFSGSGSGTDFTLTISSLEPEDFAVYFCYQSKHVPYTFGGGTKVEIKR | 7.78 | 42.5 | 12.5 | 1.61
v40210, H18L6_LC_G34S mAb (antibody, human IgG1, kappa, V domains shown, no number given for this variant) VH: QVQLVQSGAEVKKPGSSVKVSCKASGYTFTDYEMHWVKQAPGHGLEWIGAIDPETGDTAYNQKFKGKATLTADTSTSTAYMELSSLRSEDTAVYYCTRYFSFAYWGQGTLVTVSS VL: EIVLTQSPATLSLSPGERATISCRSSQSLRHSNSNTYLQWYQQKPGQAPRLLIYKVSNRFSGVPARFSGSGSGTDFTLTISSLEPEDFAVYFCYQSKHVPYTFGGGTKVEIKR | 6.58 | 42.8 | 10.3 | 1.56
v40216, H18L6_LC_N33R mAb (antibody, human IgG1, kappa, V domains shown, no number given for this variant) VH: QVQLVQSGAEVKKPGSSVKVSCKASGYTFTDYEMHWVKQAPGHGLEWIGAIDPETGDTAYNQKFKGKATLTADTSTSTAYMELSSLRSEDTAVYYCTRYFSFAYWGQGTLVTVSS VL: EIVLTQSPATLSLSPGERATISCRSSQSLRHSRGNTYLQWYQQKPGQAPRLLIYKVSNRFSGVPARFSGSGSGTDFTLTISSLEPEDFAVYFCYQSKHVPYTFGGGTKVEIKR | 11.1 | 15.8 | 20.1 | 1.82
v40209, H18L6_LC_G34T mAb (antibody, human IgG1, kappa, V domains shown, no number given for this variant) VH: QVQLVQSGAEVKKPGSSVKVSCKASGYTFTDYEMHWVKQAPGHGLEWIGAIDPETGDTAYNQKFKGKATLTADTSTSTAYMELSSLRSEDTAVYYCTRYFSFAYWGQGTLVTVSS VL: EIVLTQSPATLSLSPGERATISCRSSQSLRHSNTNTYLQWYQQKPGQAPRLLIYKVSNRFSGVPARFSGSGSGTDFTLTISSLEPEDFAVYFCYQSKHVPYTFGGGTKVEIKR | 7.43 | 43.6 | 11.3 | 1.53

Further lines, results first:

Kd [1] [nM] | Avg % binding huGPC3 (RU observed/theoretical) [2] [%] | Kd [3] [nM] | Kd Fold difference (hu/cyno) [4] [fold] | Binder
10.4 | 17.4 | 18.3 | 1.77 | v40219, H18L6_LC_N33A mAb (antibody, human IgG1, kappa, V domains shown, no number given for this variant) VH: QVQLVQSGAEVKKPGSSVKVSCKASGYTFTDYEMHWVKQAPGHGLEWIGAIDPETGDTAYNQKFKGKATLTADTSTSTAYMELSSLRSEDTAVYYCTRYFSFAYWGQGTLVTVSS VL: EIVLTQSPATLSLSPGERATISCRSSQSLRHSAGNTYLQWYQQKPGQAPRLLIYKVSNRFSGVPARFSGSGSGTDFTLTISSLEPEDFAVYFCYQSKHVPYTFGGGTKVEIKR
14 | 15.5 | 18.2 | 1.3 | v40217, H18L6_LC_N33K mAb (antibody, human IgG1, kappa, V domains shown, no number given for this variant) VH: QVQLVQSGAEVKKPGSSVKVSCKASGYTFTDYEMHWVKQAPGHGLEWIGAIDPETGDTAYNQKFKGKATLTADTSTSTAYMELSSLRSEDTAVYYCTRYFSFAYWGQGTLVTVSS VL: EIVLTQSPATLSLSPGERATISCRSSQSLRHSKGNTYLQWYQQKPGQAPRLLIYKVSNRFSGVPARFSGSGSGTDFTLTISSLEPEDFAVYFCYQSKHVPYTFGGGTKVEIKR
15.7 | 16.1 | 17.5 | 1.12 | v40220, H18L6_LC_N33Q mAb (antibody, human IgG1, kappa, V domains shown, no number given for this variant) VH: QVQLVQSGAEVKKPGSSVKVSCKASGYTFTDYEMHWVKQAPGHGLEWIGAIDPETGDTAYNQKFKGKATLTADTSTSTAYMELSSLRSEDTAVYYCTRYFSFAYWGQGTLVTVSS VL: EIVLTQSPATLSLSPGERATISCRSSQSLRHSQGNTYLQWYQQKPGQAPRLLIYKVSNRFSGVPARFSGSGSGTDFTLTISSLEPEDFAVYFCYQSKHVPYTFGGGTKVEIKR
